Test results reported in patent US20090291088A1 (Biogen, published 2009).

Columns and labels:
[1] = target: T1, human IGF-1R(1-902)-His10 (human, UniProt P08069 31-932); assay: SPR, Fab over IGF-1R-10His captured by anti-His
T1 construct: Cy5-labelled in tr-FRET; also called hIGF-1R-His10; IGF-1R-His
Experimental: All surface plasmon resonance (SPR) experiments were performed on a Biacore 3000 set to 25° C. using HBS-EP (Biacore, Cat. No. BR-1001-88) as the running buffer. A biotin-labeled anti-HisTag antibody (biotin-PENTA-His, Qiagen Cat. No. 34440) was immobilized to saturation on a Biacore SA chip (Cat. No. BR-1000-32) surface by injection at 500 nM in HBS-EP buffer. […] Subsequent to IGF-1R injections, flow rates were increased to 20 μL/min. A second, 130 μL injection of anti-IGF-1R antibody or Fab was performed to investigate interactions with the receptor. Each antibody and Fab was serially diluted from 64 nM to 0.5 nM to obtain concentration dependent kinetic binding curves. Each injection series was regenerated using 3×10 μL injections of 10 mM Acetate, pH 4.0, at 20 μL/min. Each curve was double referenced using (1) data obtained from a streptavidin surface devoid of IGF-1R and (2) data from a primary injection of IGF-1R followed by a secondary injection of HBS-EP buffer. The concentration series for each antibody and Fab was fit to the 1:1 binding model provided within the BiaEvaluation software of the manufacturer.
To obtain discrete affinities, Fab fragments of each antibody were generated using papain digestion as described above.

[2] = target: T2, IGF-1R (soluble, construct not stated) (human, UniProt P08069 31-932, limits assumed); assay: Fab affinity for IGF-1R, method not given; Fab, not IgG; method and IGF-1R construct not stated
T2 construct: whole entry named; also called Solube IGF-1R Protein; soluble recombinant human IGF-1R

B1: M13-C06 Fab (Fab, V domains shown)
VH: EVQLLESGGGLVQPGGSLRLSCAASGFTFSIYRMQWVRQAPGKGLEWVSGISPSGGTTWYADSVKGRFTISRDNSKNTLYLQMNSLRAEDTAVYYCARWSGGSGYAFDIWGQGTMVTVSS
VL: DIQMTQSPLSLSASVGDRVTITCQASRDIRNYLNWYQQKPGKAPKLLIYDASSLQTGVPSRFGGSGSGTDFSFTIGSLQPEDIATYYCQQFDSLPHTFGQGTKLEIK
notes: Human Fab from a phage library, kappa light chain
Kd [1]: 1.3 nM | Kd [2]: 1.3 nM
